Source: patent publication US8247376B2, “NGAL for reduction and amelioration of ischemic and nephrotoxic injuries” (The Trustees of Columbia University, priority 2004, dated 2012)
“Also recorded” adds a separate entry of the source.

Columns and labels:
[1] = Cofactor-dependent ^55Fe binding to NGAL (10 kDa filter retention)
Procedure: The urine fraction was obtained by passing fresh urine sequentially through 10 kDa and 3 kDa membranes (YM-10 and YM-3, Amicon). The mixture was then washed three times on 10 kDa membrane (YM-10, Amicon). Iron-free enterochelin-loaded NGAL (rather than NGAL without siderophore) served as a positive control for iron capture. Ferric citrate (1 mM) or iron-loaded enterochelin (Sid:Fe, 50 μM) were used as competitors of ^55Fe binding.

[2] = Uptake of intravenous NGAL into kidney and urine (immunofluorescence, Western blot); type: in vivo, mice; settings: within one hour of iv injection of 250 μg
Procedure: (§1) Purified endotoxin-free NGAL was administered either intravenously into mice via tail vein injections, subcutaneously, or intraperitoneally. In preliminary studies, animals were treated with three different concentrations of NGAL (50, 100, or 250 μg of a 250 μg/100 solution), subjected to 30 minutes of bilateral renal artery clamping one hour later, and examined after 24 hours of reflow. […] All subsequent studies as reported here were carried out using the 250 μg dose of NGAL. Comparisons were made between five different animal groups: non-ischemic controls (n=8), ischemic controls pre-treated with saline alone (n=8), NGAL pre-treated one hour prior to renal artery clamping (n=6), NGAL treated during renal artery clamping (n=6), and NGAL treated one hour post renal artery clamping (n=6).
For NGAL detection, frozen kidney sections were permeabilized with 0.2% Triton X-100 in PBS for 10 min, blocked with goat serum for 1 hr, and incubated with primary antibody to NGAL (1:500 dilution) for 1 hr. Slides were then exposed for 30 min in the dark to secondary antibodies conjugated with Cy5 (Amersham, Arlington Heights, Ill.), and visualized with a fluorescent microscope (Zeiss Axiophot) equipped with rhodamine filters.

[3] = system: ischemia-reperfusion injury in mice; experiment: Histopathology scoring of tubule damage (dilatation, casts, necrosis) after ischemia-reperfusion; type: in vivo; settings: NGAL before, during or after ischemia, 24 h reflow, vs saline controls
Procedure: Purified endotoxin-free NGAL was administered either intravenously into mice via tail vein injections, subcutaneously, or intraperitoneally. In preliminary studies, animals were treated with three different concentrations of NGAL (50, 100, or 250 μg of a 250 μg/100 solution), subjected to 30 minutes of bilateral renal artery clamping one hour later, and examined after 24 hours of reflow. […] All subsequent studies as reported here were carried out using the 250 μg dose of NGAL. […]
Kidney sections of 4 microns were stained with hematoxylin-eosin and scored for histopathologic damage to the tubules in a blinded fashion, as previously described by Yokota N. et al., Am J Physiol Renal Physiol 285: F319-F325, 2003 and Kjeldsen L. et al., Biochim Biophys Acta 1482: 272-283, 2000. Each parameter was assessed in five high power fields (40×) in the inner cortex and outer medullary regions (where the tubular damage was most evident), and an average determined for each section. […] Each parameter was scored on a scale of 0 to 4, ranging from none (O), mild (1), moderate (2), severe (3), to very severe/extensive (4).

cortical tubules = experiment: BrdU uptake: percent of cortical tubules with BrdU-positive cell; type: in vivo, mice; settings: NGAL pretreated, 24 hours after insult; ischemic 1.9%, sham 3.7%
Source text: (§2) After 6 or 24 hr of reperfusion, heparinized plasma, urine and kidney samples were obtained to measure NGAL (polyclonal 1:500), Heme oxygenase-1 (Stressgen, 1:2000), E-cadherin (BD Transduction Labs, 1:2000), N-cadherin (BD Transduction Labs, 1:3000) and GAPDH (Chemicon International, 1:3000) using immunoblots. Plasma was also used for creatinine and blood urea nitrogen colorimetric assays. Sagittal sections of the kidney were fixed in 4% formalin, or were snap frozen for mRNA and protein analysis. Paraffin-embedded sections (5 μm) were stained with hematoxylin-eosin or by an in situ kit (Fluorescein-TUNEL, Roche) for apoptotic nuclei or for total nuclei (Toprol, Molecular Probes). For cell proliferation analysis, BrdU was injected into the peritoneum 1 hour before sacrifice, and cryostat sections were stained with anti-BrdU (Roche) according to the manufacturer.

[4] = system: mouse model of ATN or ischemia/reperfusion injury; experiment: Mouse model of ATN (30 min clamp, contralateral nephrectomy): plasma creatinine; type: in vivo, mice
Procedure: (§3) Male C57BL/6 mice (20-25 gr; Charles River) were anesthetized with intraperitoneal pentobarbital (50 mg/kg) and placed on a heating pad under a warming light to maintain 37© core body temperature. Kidneys were exposed through an abdominal section and the right kidney was either removed or its vascular pedicle and ureter ligated. The vascular pedicle of the left kidney or both kidneys was clamped by a microaneurysm clip (Kent Scientific) for 30 minutes after right nephrectomy. This period of ischemia generated reproducible renal injury but minimized mortality. During the procedure, PBS (0.5 ml) was used to dampen the peritoneum. The animal was closed with 5-0 Nylon. Saline, NGAL, retinol-loaded retinol binding protein (RBP), enterochelin, or desferroxamine mesylate (DFO) were injected into the peritoneum or subcutaneously 15 min. prior to ischemia or 1-2 hr after reperfusion.
as §2

[5] = system: ischemia-reperfusion injury in mice; experiment: Serum creatinine 24 h after bilateral renal artery clamping, NGAL intravenous; type: in vivo
Procedure: as §1, §3
For some studies, the mice were allowed to recover in a warmed cage, and timed urine collections were obtained. […] The mice were killed, the kidneys perfusion fixed in situ with 4% paraformaldehyde in PBS, and both kidneys harvested. One half of each kidney was snap frozen in liquid nitrogen and stored at −70° C. until further processing; a sample was fixed in formalin, paraffin-embedded, and sectioned (4 μm). Paraffin sections were stained with hematoxylin-eosin and examined histologically. The other half of each kidney was embedded in OCT compound (Tissue-Tek) and frozen sections (4 μm) obtained for immunohistochemistry.

tubule epithelial cells = experiment: PCNA proliferation assay on kidney sections; type: in vivo, mice; settings: 24 h reflow
Procedure: as §1
For detection of proliferating cells, sections were incubated with a monoclonal antibody to Proliferating Cell Nuclear Antigen (PCNA, 1:500 dilution, Upstate Biotechnology), and detection accomplished by immunoperoxidase staining as recommended by the manufacturer (ImmunoCruz Staining System, Santa Cruz Biotechnology). Slides were examined in a blinded fashion, and proliferation was quantified by counting the number of PCNA positive cells per 100 cells counted in an average of five high power (40×) fields in each section.

B1: NGAL: Purified endotoxin-free recombinant NGAL expressed as GST fusion protein in bacteria, thrombin cleaved (protein, UniProt P80188 21-198, looked up)
Neutrophil …: QDSTSDLIPAPPLSKVPLQQNFQDNQFQGKWYVVGLAGNAILREDKDPQKMYATIYELKEDKSYNVTSVLFRKKKCDYWIRTFVPGCQPGEFTLGNIKSYPGLTSYLVRVVSTNYNQHAMVFFKKVSQNREYFKITLYGRTKELTSELKENFIRFSKSLGLPENHIVFPVPIDQCIDG
NGAL molecules that bound iron ([1]; 30 μl of mouse urine): approximately 20% | retention of ^55Fe ([1]; with mouse urine fraction (<3,000 Da), washed on 10 kDa filter): permitted the retention of ^55Fe | NGAL in urine by Western blot [2]: detected in the urine within one hour of injection; also recorded: easily detected in the kidney and urine | NGAL in kidney by immunofluorescence ([2]; ischemic mice): easily detected in a punctate cytoplasmic distribution predominantly in the proximal tubules | histopathologic score (dilatation, casts, cell necrosis; scale 0 to 4) [3]: significantly improved score | percent of cortical tubules with at least one BrDU-positive tubular cell (cortical tubules): 3.9%±0.5 | plasma creatinine 24 hours after reperfusion ([4]; 1 μg NGAL (not protective)): 3.09 ± 0.11 mg/dL | plasma creatinine 24 hours after reperfusion ([4]; 100 μg NGAL 15 minutes before clamping, untreated 3.16±0.17): 1.18 ± 0.18 mg/dL | plasma creatinine ([4]; NGAL 2 hours after ischemia (no protective effect)): 3.12 ± 0.35 mg/dL | plasma creatinine 24 hours after reperfusion ([4]; NGAL one hour after reperfusion): 1.60 ± 0.28 mg/dL | protection against ATN (creatinine, FIG. 17A) ([4]; administered later than one hour after ischemia): ineffective | protection from the tubular damage and azotemia ([5]; 250 μg NGAL one hour before 30 min bilateral renal artery clamping, 24 h reflow, vs saline, doses 50, 100, 250 μg tested): significant protection from the tubular damage and azotemia | serum creatinine at 24 hours of reflow ([5]; NGAL 250 μg iv during ischemia (Dur NGAL)): 1.5±0.2 mg/di | serum creatinine at 24 hours of reflow ([5]; NGAL 250 μg iv one hour after ischemia (Post NGAL)): 1.95±0.2 mg/di | serum creatinine at 24 hours of reflow ([5]; NGAL 250 μg iv one hour before ischemia (Pre NGAL), saline 2.6±0.28, non-ischemic 0.65±0.13): 1.25 ± 0.3 mg/dL | PCNA-positive tubule epithelial cells per hundred cells (tubule epithelial cells; NGAL during ischemia): 14.9%±1.2 | PCNA-positive tubule epithelial cells per hundred cells (tubule epithelial cells; NGAL one hour after ischemia): 14.5%±1.2 | PCNA-positive tubule epithelial cells per hundred cells (tubule epithelial cells; NGAL one hour before ischemia, saline 4.4%±1.2): 19.1%±2.1
